Measured values as given in US20260167706A1 (ADRENOMED, published 2026).
Like-named read-outs stand apart in the source and are kept apart here. Where no end group is shown, it is not given here.

Experiments:
[1] = molecular target: T1, human recombinant adrenomedullin receptor (CRLR + RAMP3) (human); assay: cell-based or functional assay
[2] = molecular target: T1, human recombinant adrenomedullin …; assay: cell-based or functional assay; remark: listed apart in the source

T1 sequence (Q16602 whole entry, chain 1 of 2): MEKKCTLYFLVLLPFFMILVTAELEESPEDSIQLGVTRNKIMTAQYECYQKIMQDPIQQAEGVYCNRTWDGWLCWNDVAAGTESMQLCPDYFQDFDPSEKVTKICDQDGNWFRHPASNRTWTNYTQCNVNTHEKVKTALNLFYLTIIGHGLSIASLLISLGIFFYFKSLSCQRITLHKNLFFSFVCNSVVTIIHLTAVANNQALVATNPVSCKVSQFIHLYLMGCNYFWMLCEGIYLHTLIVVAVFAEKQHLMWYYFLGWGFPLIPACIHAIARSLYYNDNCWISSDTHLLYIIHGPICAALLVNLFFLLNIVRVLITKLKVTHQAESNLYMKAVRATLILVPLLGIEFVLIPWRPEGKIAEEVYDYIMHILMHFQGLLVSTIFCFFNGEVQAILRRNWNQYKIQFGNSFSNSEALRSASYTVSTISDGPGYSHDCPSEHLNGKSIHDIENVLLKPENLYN
T1 sequence (O60896 whole entry, chain 2 of 2, further chain): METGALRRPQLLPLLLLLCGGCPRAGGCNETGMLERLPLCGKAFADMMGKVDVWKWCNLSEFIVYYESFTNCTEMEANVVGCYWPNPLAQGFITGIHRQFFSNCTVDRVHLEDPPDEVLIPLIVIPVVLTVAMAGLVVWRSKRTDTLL

Row | EC50 (read off the curve); cAMP, % activation [1] [nM] | EC50 (read off the curve); cAMP, % activation [2] [nM] | Binder
1 | ~0.08 |  | YRQSMNQGSRSNGCRFGTCTFQKLAHQIYQLTDKDKDGMAPRNKISPQGY-NH2 (ends and bridges not checked) [Murine ADM 1-50]
2 |  | ~1 | human Adrenomedullin (mature ADM; amidated ADM; bio-ADM), amino acids 1-52 (ends and bridges not checked) peptide: YRQSMNNFQGLRSFGCRFGTCTVQKLAHQIYQFTDKDKDNVAPRSKISPQGY-NH2
